Changes are numbered by the printed parent chain.
T1: human wildtype FLT3 expressed on Ba/F3 cells (human, UniProt P36888 27-993)
T1 construct: also called hFLT3 wt; Ba/F3-FLT3
T1 sequence: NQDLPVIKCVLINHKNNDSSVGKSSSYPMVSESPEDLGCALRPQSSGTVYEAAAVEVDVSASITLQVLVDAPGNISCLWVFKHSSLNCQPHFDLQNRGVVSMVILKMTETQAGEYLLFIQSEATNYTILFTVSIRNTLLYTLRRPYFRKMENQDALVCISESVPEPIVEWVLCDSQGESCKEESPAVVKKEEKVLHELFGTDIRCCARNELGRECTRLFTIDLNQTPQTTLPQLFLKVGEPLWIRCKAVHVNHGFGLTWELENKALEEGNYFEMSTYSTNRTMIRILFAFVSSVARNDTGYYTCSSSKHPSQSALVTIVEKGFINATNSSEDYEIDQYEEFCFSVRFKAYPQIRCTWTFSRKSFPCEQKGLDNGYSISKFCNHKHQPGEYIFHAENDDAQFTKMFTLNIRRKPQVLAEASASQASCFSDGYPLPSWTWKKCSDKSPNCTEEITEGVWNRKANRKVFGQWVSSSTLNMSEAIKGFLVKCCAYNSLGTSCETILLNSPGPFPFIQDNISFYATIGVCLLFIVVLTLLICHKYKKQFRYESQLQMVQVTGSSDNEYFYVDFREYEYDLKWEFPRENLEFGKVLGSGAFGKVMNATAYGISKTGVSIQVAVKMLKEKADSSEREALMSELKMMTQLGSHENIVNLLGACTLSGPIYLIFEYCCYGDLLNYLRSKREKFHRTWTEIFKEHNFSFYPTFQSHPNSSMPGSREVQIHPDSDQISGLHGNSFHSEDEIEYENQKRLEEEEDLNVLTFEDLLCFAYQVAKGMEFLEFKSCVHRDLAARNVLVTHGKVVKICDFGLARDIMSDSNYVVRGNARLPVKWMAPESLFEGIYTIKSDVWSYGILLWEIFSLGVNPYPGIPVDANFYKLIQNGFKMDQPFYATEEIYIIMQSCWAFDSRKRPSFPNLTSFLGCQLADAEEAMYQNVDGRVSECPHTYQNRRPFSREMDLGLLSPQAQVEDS

T2: recombinant human FLT3 protein (human, UniProt P36888 27-541)
T2 construct: also called recombinant FLT3 protein; human recombinant FLT3 protein (10445-H08H, Sino Biological)
T2 sequence: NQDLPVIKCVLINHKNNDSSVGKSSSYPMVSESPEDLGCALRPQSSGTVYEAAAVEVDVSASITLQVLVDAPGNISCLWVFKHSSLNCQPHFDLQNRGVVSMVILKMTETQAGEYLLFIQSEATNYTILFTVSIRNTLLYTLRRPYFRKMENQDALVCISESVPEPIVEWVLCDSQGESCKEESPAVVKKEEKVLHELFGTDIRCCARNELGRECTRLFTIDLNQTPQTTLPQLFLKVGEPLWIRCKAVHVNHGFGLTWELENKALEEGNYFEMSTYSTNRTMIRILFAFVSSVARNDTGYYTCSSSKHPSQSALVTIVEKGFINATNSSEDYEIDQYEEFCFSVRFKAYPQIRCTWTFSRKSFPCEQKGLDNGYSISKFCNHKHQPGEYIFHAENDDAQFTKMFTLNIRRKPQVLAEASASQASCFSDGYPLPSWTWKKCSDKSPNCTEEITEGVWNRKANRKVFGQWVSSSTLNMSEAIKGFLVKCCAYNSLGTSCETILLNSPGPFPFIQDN

B1: Humanized clone 13 of 20D9 (VH3 + VK1; HC-LALA, same as Clone #3 but with LALA mutation in HC constant region) (antibody, human IgG1, kappa, L234A L235A)
heavy: not shown
light: DIQMTQSPSVLSASVGDRVTINCRASQNINKELNWYQQKLGEAPKLLIYNTNNLQSGVPSRFSGSGSGTDYTLTISSLQPEDVATYFCFQHKSWPLTFGSGTKLEIKRTVAAPSVFIFPPSDEQLKSGTASVVCLLNNFYPREAKVQWKVDNALQSGNSQESVTEQDSKDSTYSLSSTLTLSKADYEKHKVYACEVTHQGLSSPVTKSFNRGEC
notes: also called #3-LALA; #3-LALA mab
B2: #5 (antibody, human IgG1, kappa, V domains shown)
VH: QVMLVESGGGVVQPGRSLRLSCAASGFTFNNYWMTWVRQAPGKGLEWIASITKTGGGTYYPDSVKGRFTISRDNAKSTLYLQMNSLRSEDTATYYCTTLQQLGVMDAWGQGASVTVSS
VL: DIQMTQSPSVLSASVGDRVTITCRASQNINKELNWYQQKLGKAPKLLIYNTNNLQSGVPSRFSGSGSGTDFTLTISSLQPEDFATYYCFQHKSWPLTFGSGTKLEIKR
notes: also called Humanized clone 5 of 20D9 (VH1 + VK2); Clone #5
B3: #7 (antibody, human IgG1, kappa, V domains shown)
VH: B2 VH with M3Q, P61A, A75S, S77N, S88A, T93V, A112T, S113L
VL: B2 VL
notes: also called Humanized clone 7 of 20D9 (printed as VH3 + VK29); Clone #7
B4: #8 (antibody, human IgG1, kappa, V domains shown)
VH: B2 VH with M3Q, V37I, P61A, A75S, S77N, S88A, T93V, A112T, S113L
VL: B2 VL
notes: also called Humanized clone 8 of 20D9 (VH4 + VK2); Clone #8
B5: #10 (antibody, human IgG1, kappa, V domains shown)
VH: B2 VH with A75S, S88A
VL: B2 VL with V10S, N28S, L40P, S100Q
notes: also called Humanized clone 10 of 20D9 (VH2 + VK3); Clone #10
B6: #11 (antibody, human IgG1, kappa, V domains shown)
VH: B2 VH with M3Q, P61A, A75S, S77N, S88A, T93V, A112T, S113L
VL: B2 VL with V10S, N28S, L40P, S100Q
notes: also called Humanized clone 11 of 20D9 (VH3 + VK3); Clone #11
B7: #12 (antibody, human IgG1, kappa, V domains shown)
VH: B2 VH with M3Q, V37I, P61A, A75S, S77N, S88A, T93V, A112T, S113L
VL: B2 VL with V10S, N28S, L40P, S100Q
notes: also called Humanized clone 12 of 20D9 (VH4 + VK3); Clone #12
B8: Humanized clone 1 of 20D9 (VH1 + VK1) (antibody, human IgG1, kappa, V domains shown)
VH: B2 VH
VL: B2 VL with T22N, K42E, F71Y, F83V, Y87F
B9: #6 (antibody, human IgG1, kappa, V domains shown)
VH: B2 VH with A75S, S88A
VL: B2 VL
notes: also called Humanized clone 6 of 20D9 (VH2 + VK2); Clone #6
B10: #9 (antibody, human IgG1, kappa, V domains shown)
VH: B2 VH
VL: B2 VL with V10S, N28S, L40P, S100Q
notes: also called Humanized clone 9 of 20D9 (VH1 + VK3); Clone #9
B11: Humanized clone 2 of 20D9 (VH2 + VK1) (antibody, human IgG1, kappa, V domains shown)
VH: B2 VH with A75S, S88A
VL: B2 VL with T22N, K42E, F71Y, F83V, Y87F
B12: Humanized clone 4 of 20D9 (VH4 + VK1) (antibody, human IgG1, kappa, V domains shown)
VH: B2 VH with M3Q, V37I, P61A, A75S, S77N, S88A, T93V, A112T, S113L
VL: B2 VL with T22N, K42E, F71Y, F83V, Y87F
B13: 4B12 chimeric anti-FLT3 monoclonal antibody (antibody, V domains shown)
VH: QVQLQQSGPGLVQPSQTLSLTCTVSGFSLTSYNVNWVRQPPGKGLEWIGAMWRGGGTDYNPALKSRLSISRDTSKSQVFLKMNRLQTEDTAIYFCTRGFGDYWGQGVMVTVSS
VL: DIQMTQTPLSLSVAIGQSASISCKSSQSLKYSDGKTYLNWVFQSPGQSPKRLIYQVSKLDSGVPDRFSGTGSETDFTLKISRVEAEDLGVYYCCQGSYSPSTFGAGTKLELKR
notes: also called 4B12 mab
B14: 30B12 chimeric anti-FLT3 monoclonal antibody (antibody, V domains shown)
VH: QVQLKVSGPGLVQPSQTLSLTCAVSGFSLSNYHVSWVRQPPGKGLEWIAAISSGGSTYYNSPLKSRLSISRDTSKSQVFLKMNSLQTEDTAIYFCTGEDGYTFGNVMDAWGQGASVTVSS
VL: not shown
B15: 29H1 chimeric anti-FLT3 monoclonal antibody (antibody, V domains shown)
VH: EVKLEESGGGLVQPGGSMKFFCVASGFTFSNYWMNWVRQSPEKGLEWVAQIKLKSDNYATRYAESVKGRFTISRDDSKSSVNLQMNNLRAEDTGIYYCTVSLARSDYWGQGTTLTVSS
VL: not shown
B16: 27E7 chimeric anti-FLT3 monoclonal antibody (antibody, V domains shown)
VH: B15 VH with G10D, F20L, F21S, S30R, K52R, R61H, I72M, N82Y, N87T
VL: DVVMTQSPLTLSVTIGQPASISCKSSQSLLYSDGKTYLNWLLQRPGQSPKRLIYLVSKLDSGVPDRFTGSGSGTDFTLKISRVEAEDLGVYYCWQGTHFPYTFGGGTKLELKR

Legend:
[1] = target: T3, human CD64 (high affinity Fc receptor, FCGR1) on cells (human, UniProt P12314 16-374); assay: flow cytometry, cell surface binding to Ba/F3-pMIY cells expressing CD64, specific MFI, mean ± s.d. of n=3
T3 construct: whole, on cells; also called hCD64; human FCGR1

VEGFR-2 on Ba/F3 cells = target: T4, VEGFR-2 on Ba/F3 cells (UniProt P35968 20-1356, limits assumed); assay: flow cytometry, cell surface binding to Ba/F3 pMIY cells expressing VEGFR, MFI ratio normalized to IgG1, mean ± s.d. of n=3
T4 construct: whole, on cells

c-KIT on Ba/F3 cells = target: T5, c-KIT on Ba/F3 cells (UniProt P10721 26-976, limits assumed); assay: flow cytometry, cell surface binding to Ba/F3 pMIY cells expressing c-KIT, MFI ratio normalized to IgG1, mean ± s.d. of n=3
T5 construct: whole, on cells

[2] = target: CD16 (Fc gamma receptor) on Ba/F3 cells (human, UniProt P08637 17-254); assay: flow cytometry, cell surface binding to Ba/F3-pMIY cells expressing CD16, specific MFI, mean ± s.d. of n=3
CSF1R on Ba/F3 cells = target: T6, CSF1R on Ba/F3 cells (UniProt P07333 20-972, limits assumed); assay: flow cytometry, cell surface binding to Ba/F3 pMIY cells expressing CSF-1R, MFI ratio normalized to IgG1, mean ± s.d. of n=3
T6 construct: whole, on cells

PDGFRα on Ba/F3 cells = target: T7, PDGFRα on Ba/F3 cells (UniProt P16234 24-1089, limits assumed); assay: flow cytometry, cell surface binding to Ba/F3 pMIY cells expressing PDGFRα, MFI ratio normalized to IgG1, mean ± s.d. of n=3
T7 construct: whole, on cells

[3] = target: T1, human wildtype FLT3 expressed on Ba/F3 …; assay: flow cytometry, cell surface binding to Ba/F3 cells expressing human FLT3 (results of FIG. 14 summarized)
[4] = target: T2, recombinant human FLT3 protein; assay: ELISA with recombinant human FLT3 coated to the plate (results of FIG. 13 summarized)
Procedure: (§1) Maxisorp plates were coated with human recombinant FLT3 protein (10445-H08H, Sino Biological). […] For detection, Attophos Fluorescent Substrate System (S1000, Promega) was applied. The fluorescence was read with excitation of 405 nm and emission at 500-550 nm. The calculation of the dissociation constant KD was performed using GraphPad Prism version 9.4.0.
The 12 clones were subsequently analysed in ELISA assays (FIG. 13). Therefore, recombinant human FLT3 was coated on plates and incubated with the antibody candidates. […] Mean±s.d. of n=3 biological replicates.

[5] = target: T2, recombinant human FLT3 protein; assay: ELISA on recombinant human FLT3, normalized to BSA control
Procedure: as §1

T6 sequence (P07333 20-972 limits assumed): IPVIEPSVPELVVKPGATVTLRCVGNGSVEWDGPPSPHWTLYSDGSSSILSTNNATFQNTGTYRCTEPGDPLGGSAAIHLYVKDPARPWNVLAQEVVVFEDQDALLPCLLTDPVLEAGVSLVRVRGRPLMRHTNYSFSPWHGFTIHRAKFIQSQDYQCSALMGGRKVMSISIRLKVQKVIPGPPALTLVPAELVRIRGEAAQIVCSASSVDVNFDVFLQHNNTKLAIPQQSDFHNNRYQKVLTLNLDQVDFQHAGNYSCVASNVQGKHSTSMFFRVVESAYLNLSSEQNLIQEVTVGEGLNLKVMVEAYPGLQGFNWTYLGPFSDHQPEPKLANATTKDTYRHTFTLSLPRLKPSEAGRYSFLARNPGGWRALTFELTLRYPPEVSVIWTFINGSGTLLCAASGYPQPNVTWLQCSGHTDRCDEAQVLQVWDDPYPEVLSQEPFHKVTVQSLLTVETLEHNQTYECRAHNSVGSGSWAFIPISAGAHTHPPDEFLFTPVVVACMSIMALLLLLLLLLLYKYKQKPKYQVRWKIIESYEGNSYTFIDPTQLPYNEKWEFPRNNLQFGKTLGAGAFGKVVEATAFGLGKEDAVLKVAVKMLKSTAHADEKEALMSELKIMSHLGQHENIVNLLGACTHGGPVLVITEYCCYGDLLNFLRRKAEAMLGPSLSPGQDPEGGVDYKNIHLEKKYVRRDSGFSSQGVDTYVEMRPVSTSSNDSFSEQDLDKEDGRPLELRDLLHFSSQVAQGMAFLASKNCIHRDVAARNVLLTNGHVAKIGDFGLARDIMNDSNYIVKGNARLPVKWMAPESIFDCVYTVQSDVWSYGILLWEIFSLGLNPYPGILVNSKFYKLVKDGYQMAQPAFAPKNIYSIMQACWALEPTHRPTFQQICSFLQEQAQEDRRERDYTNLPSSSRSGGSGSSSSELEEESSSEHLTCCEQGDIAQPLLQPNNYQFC
T4 sequence (P35968 20-1356 limits assumed): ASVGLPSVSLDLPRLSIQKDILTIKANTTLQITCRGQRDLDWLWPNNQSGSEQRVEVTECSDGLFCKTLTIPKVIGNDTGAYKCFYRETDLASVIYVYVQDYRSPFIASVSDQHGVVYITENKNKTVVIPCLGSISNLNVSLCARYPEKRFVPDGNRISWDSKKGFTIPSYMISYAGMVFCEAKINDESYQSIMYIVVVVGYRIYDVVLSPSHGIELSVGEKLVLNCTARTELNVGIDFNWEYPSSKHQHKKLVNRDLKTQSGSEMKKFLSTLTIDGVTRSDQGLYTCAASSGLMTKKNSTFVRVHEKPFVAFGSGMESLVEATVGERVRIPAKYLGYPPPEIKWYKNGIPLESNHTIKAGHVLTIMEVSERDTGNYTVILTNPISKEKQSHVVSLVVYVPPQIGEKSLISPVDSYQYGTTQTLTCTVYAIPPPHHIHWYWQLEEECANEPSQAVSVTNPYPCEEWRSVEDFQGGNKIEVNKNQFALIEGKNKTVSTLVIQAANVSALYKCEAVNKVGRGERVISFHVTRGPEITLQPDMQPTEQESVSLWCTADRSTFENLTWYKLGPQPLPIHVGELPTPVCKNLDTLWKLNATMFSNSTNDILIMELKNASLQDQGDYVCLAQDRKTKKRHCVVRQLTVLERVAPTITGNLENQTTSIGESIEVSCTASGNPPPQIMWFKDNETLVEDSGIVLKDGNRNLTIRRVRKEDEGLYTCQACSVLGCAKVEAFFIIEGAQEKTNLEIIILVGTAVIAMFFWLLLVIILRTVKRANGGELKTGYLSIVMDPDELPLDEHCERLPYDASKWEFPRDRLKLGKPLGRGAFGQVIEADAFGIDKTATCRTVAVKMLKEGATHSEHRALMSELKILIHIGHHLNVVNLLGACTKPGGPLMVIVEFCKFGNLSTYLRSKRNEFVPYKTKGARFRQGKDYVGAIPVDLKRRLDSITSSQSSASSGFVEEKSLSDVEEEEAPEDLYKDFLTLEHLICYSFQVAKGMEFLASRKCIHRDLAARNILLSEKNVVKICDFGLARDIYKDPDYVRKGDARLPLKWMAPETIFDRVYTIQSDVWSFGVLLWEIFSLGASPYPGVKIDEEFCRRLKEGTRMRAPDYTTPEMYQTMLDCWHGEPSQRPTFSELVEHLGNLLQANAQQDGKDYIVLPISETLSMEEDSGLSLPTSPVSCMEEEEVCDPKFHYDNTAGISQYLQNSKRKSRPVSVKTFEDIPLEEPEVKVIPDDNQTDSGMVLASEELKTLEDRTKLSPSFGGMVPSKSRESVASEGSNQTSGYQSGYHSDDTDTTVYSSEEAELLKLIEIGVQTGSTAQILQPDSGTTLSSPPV
T5 sequence (P10721 26-976 limits assumed): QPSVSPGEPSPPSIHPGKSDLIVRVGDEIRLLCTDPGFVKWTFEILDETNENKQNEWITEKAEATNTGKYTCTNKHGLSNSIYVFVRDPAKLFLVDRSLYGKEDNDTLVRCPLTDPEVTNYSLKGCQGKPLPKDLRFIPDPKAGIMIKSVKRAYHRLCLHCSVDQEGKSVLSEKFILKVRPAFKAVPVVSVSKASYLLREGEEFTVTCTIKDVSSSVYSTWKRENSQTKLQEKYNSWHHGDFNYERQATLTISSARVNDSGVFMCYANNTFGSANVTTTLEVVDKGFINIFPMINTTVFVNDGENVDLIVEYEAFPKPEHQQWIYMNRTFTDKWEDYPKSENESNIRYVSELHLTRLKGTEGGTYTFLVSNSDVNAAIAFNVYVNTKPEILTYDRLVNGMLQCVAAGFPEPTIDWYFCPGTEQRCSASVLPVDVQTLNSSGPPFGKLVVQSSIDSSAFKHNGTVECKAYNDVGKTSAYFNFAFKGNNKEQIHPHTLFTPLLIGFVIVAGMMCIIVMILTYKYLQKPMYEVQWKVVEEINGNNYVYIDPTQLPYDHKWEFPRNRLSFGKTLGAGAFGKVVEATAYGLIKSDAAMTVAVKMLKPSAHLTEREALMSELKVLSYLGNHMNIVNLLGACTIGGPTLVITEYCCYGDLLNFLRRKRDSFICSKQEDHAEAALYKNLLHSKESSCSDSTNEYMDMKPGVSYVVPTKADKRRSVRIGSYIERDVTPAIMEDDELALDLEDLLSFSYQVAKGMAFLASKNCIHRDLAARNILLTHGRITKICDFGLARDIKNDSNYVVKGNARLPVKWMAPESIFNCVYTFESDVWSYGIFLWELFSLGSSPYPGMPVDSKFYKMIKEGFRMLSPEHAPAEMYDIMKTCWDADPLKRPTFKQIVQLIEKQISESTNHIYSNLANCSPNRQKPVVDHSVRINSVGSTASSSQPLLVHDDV
T7 sequence (P16234 24-1089 limits assumed): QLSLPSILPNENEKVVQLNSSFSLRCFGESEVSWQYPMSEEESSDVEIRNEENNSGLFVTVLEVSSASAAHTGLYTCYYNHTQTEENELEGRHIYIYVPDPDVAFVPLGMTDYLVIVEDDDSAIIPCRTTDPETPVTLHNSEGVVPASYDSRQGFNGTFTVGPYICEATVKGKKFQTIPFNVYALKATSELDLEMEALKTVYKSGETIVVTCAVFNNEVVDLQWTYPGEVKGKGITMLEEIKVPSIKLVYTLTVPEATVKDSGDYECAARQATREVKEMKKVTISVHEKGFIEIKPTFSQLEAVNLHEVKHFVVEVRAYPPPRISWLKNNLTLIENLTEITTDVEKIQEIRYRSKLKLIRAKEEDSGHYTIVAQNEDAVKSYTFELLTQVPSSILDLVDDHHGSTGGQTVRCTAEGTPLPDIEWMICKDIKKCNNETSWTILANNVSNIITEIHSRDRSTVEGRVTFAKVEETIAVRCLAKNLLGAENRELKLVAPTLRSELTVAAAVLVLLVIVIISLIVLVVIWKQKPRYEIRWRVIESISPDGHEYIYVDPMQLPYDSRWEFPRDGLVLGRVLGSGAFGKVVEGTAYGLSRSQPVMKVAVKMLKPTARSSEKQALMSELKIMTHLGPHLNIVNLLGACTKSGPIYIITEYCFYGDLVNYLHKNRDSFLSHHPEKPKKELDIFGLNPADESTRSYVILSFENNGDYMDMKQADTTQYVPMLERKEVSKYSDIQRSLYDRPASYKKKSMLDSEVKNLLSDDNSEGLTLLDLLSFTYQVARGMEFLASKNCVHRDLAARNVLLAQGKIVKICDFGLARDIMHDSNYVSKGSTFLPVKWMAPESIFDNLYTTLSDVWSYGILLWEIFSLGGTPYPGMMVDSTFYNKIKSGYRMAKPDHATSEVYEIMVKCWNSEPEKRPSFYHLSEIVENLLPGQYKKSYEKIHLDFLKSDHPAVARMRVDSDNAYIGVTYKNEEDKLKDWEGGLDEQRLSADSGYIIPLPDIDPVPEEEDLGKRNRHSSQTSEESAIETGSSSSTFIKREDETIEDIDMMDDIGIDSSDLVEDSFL
Sequence of CD16 (Fc gamma receptor) on Ba/F3 cells (P08637 17-254 limits assumed): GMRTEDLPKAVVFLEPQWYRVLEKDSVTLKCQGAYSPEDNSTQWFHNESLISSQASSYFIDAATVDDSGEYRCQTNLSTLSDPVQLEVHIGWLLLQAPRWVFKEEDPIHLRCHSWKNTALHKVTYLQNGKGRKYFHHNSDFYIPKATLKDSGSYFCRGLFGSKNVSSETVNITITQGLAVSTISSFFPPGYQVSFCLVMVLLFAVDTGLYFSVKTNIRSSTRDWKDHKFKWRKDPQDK
T3 sequence (P12314 16-374): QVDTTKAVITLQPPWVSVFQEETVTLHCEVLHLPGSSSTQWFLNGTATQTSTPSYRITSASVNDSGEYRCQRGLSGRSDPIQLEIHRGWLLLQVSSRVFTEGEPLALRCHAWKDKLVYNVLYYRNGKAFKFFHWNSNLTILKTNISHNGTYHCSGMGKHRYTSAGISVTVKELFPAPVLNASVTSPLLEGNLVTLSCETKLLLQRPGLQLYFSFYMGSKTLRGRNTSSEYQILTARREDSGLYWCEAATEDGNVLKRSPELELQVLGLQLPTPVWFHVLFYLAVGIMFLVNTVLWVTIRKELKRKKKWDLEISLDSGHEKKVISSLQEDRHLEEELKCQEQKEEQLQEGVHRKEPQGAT

Row | Binding to human FLT3 (MFI ratio to IgG1 control) [3] | Kd [4] | other results | Binder
1 | – | – | binding result [1]: binds; binding result (VEGFR-2 on Ba/F3 cells): no binding; binding result (c-KIT on Ba/F3 cells): no binding; binding result [2]: no binding; binding result (CSF1R on Ba/F3 cells): no binding; binding result (PDGFRα on Ba/F3 cells): no binding | B1
2 | 42.4 | 0.0293 µg/mL | – | B2
3 | 45.7 | 0.0371 µg/mL | – | B3
4 | 43.7 | 0.0293 µg/mL | – | B4
5 | 20.2 | 0.0778 µg/mL | – | B5
6 | 20.5 | 0.112 µg/mL | – | B6
7 | 24.8 | 0.0553 µg/mL | – | B7
8 | 96 | 0.0114 µg/mL | – | B8
9 | 41.3 | 0.0335 µg/mL | – | B9
10 | 21.3 | 0.0834 µg/mL | – | B10
11 | 96 | 0.0114 µg/mL | – | B11
12 | 98.2 | 0.011 µg/mL | – | B12
13 | – | – | Kd [5]: 0.0319 µg/mL | B13
14 | – | – | Kd [5]: 3.31 µg/mL | B14
15 | – | – | Kd [5]: 0.0284 µg/mL | B15
16 | – | – | Kd [5]: 0.0115 µg/mL | B16
